Measurements from US20180244784A1 (published 2018).

B1: human VEGFR-2/Fc (R&D Systems) (Fc fusion)
chain: ASVGLPSVSLDLPRLSIQKDILTIKANTTLQITCRGQRDLDWLWPNNQSGSEQRVEVTECSDGLFCKTLTIPKVIGNDTGAYKCFYRETDLASVIYVYVQDYRSPFIASVSDQHGVVYITENKNKTVVIPCLGSISNLNVSLCARYPEKRFVPDGNRISWDSKKGFTIPSYMISYAGMVFCEAKINDESYQSIMYIVVVVGYRIYDVVLSPSHGIELSVGEKLVLNCTARTELNVGIDFNWEYPSSKHQHKKLVNRDLKTQSGSEMKKFLSTLTIDGVTRSDQGLYTCAASSGLMTKKNSTFVRVHEKPFVAFGSGMESLVEATVGERVRIPAKYLGYPPPEIKWYKNGIPLESNHTIKAGHVLTIMEVSERDTGNYTVILTNPISKEKQSHVVSLVVYVPPQIGEKSLISPVDSYQYGTTQTLTCTVYAIPPPHHIHWYWQLEEECANEPSQAVSVTNPYPCEEWRSVEDFQGGNKIEVNKNQFALIEGKNKTVSTLVIQAANVSALYKCEAVNKVGRGERVISFHVTRGPEITLQPDMQPTEQESVSLWCTADRSTFENLTWYKLGPQPLPIHVGELPTPVCKNLDTLWKLNATMFSNSTNDILIMELKNASLQDQGDYVCLAQDRKTKKRHCVVRQLTVLERVAPTITGNLENQTTSIGESIEVSCTASGNPPPQIMWFKDNETLVEDSGIVLKDGNRNLTIRRVRKEDEGLYTCQACSVLGCAKVEAFFIIEGAQEKTNLE
notes: also called recombinant VEGFR2/Fc; VEGFR/Fc; not shown: Fc part of the bought fusion; It was captured by goat anti-human IgG-Fc in the ELISA
B2: biotin-V21H4 (biotinylated AB1 antibody, SEQ ID NO:6) (VHH)
VHH: QVQLVESGGGLVQAGGSLRLSCAASGRAFSSYAMGWFRQAPGKERELVAAISWSDDSTYYANSVKGRFTISRDNAKSAVYLQMNSLKPEDTAVYYCAAHKSLQRPDEYTYWGQGTQVTVSS
notes: also called V21H4 antibody alone; AB1C
B3: AB2 with linker 2 (SEQ ID NO:13) (other)
VH: MQVQLVESGGGLIKPGGSLRLSCAASGFRFSAESMTWVRQAPGKGLEWVSAISSSGGSTYYADSVKGRFTISRDNSKNTVYLQMNSLRAEDTAVYYCVRSPKGCTHASCSWNSGSWGQGTLVTVSSGSEQKLISEEDLNHHHHH
notes: also called VR2-801-18; V18 with c-Myc/His5 tail
B4: AB1 with linker 2 (SEQ ID NO:7) (VHH)
VHH: B2 VHH
notes: also called VR2-21; V21 with c-Myc/His6 tail
B5: AB3 with linker 2 (SEQ ID NO:21) (other)
VH: MQVQLVESGGGLIKPGGSLRLSCAASGDMLSYDVMSWVRQAPGKGLEWVSAISSSGGSTYYADSVKGRFTISRDNSKNTVYLQMNSLRAEDTAVYYCVAAPWRCTHDNCSKTRASWGQGTMVTVSSGSEQKLISEEDLNHHHHH
notes: also called VR2-801-45; V45 with c-Myc/His5 tail
B6: AB4 with linker 2 (SEQ ID NO:27) (VHH)
VHH: QVKLEESGGGLVQAGGSLRLSCAASGGTASSYAMGWFRQAPGKEREFVAAISRSGGNTDYVDSAKGRFTISRDDAKNTVSLQMNSLRLEDTAVYYCAARYAGTWPNDAGTVYWLPPNYNYWGQGTQVTVSS
notes: also called VR2-38; V38 with c-Myc/His6 tail
B7: VEGFR3/Fc (R&D Systems) (Fc fusion)
chain: YSMTPPTLNITEESHVIDTGDSLSISCRGQHPLEWAWPGAQEAPATGDKDSEDTGVVRDCEGTDARPYCKVLLLHEVHANDTGSYVCYYKYIKARIEGTTAASSYVFVRDFEQPFINKPDTLLVNRKDAMWVPCLVSIPGLNVTLRSQSSVLWPDGQEVVWDDRRGMLVSTPLLHDALYLQCETTWGDQDFLSNPFLVHITGNELYDIQLLPRKSLELLVGEKLVLNCTVWAEFNSGVTFDWDYPGKQAERGKWVPERRSQQTHTELSSILTIHNVSQHDLGSYVCKANNGIQRFRESTEVIVHENPFISVEWLKGPILEATAGDELVKLPVKLAAYPPPEFQWYKDGKALSGRHSPHALVLKEVTEASTGTYTLALWNSAAGLRRNISLELVVNVPPQIHEKEASSPSIYSRHSRQALTCTAYGVPLPLSIQWHWRPWTPCKMFAQRSLRRRQQQDLMPQCRDWRAVTTQDAVNPIESLDTWTEFVEGKNKTVSKLVIQNANVSAMYKCVVSNKVGQDERLIYFYVTTIPDGFTIESKPSEELLEGQPVLLSCQADSYKYEHLRWYRLNLSTLHDAHGNPLLLDCKNVHLFATPLAASLEEVAPGARHATLSLSIPRVAPEHEGHYVCEVQDRRSHDKHCHKKYLSVQALEAPRLTQNLTDLLVNVSDSLEMQCLVAGAHAPSIVWYKDERLLEEKSGVDLADSNQKLSIQRVREEDAGRYLCSVCNAKGCVNSSASVAVEGSEDKGSMEI
notes: not shown: Fc part, captured by goat anti-human IgG-Fc; not described further

Columns and labels:
[1] = biological target: T1, AB1m (SEQ ID NO:9)-DOS47 antibody-urease conjugate (jack bean (Canavalia ensiformis), UniProt P07374 1-840); assay: ELISA, urease conjugates on VEGFR2/Fc
T1 construct: also called AB1-DOS47

[2] = biological target: T2, AB2 (SEQ ID NO:13)-DOS47 antibody-urease conjugate (jack bean (Canavalia ensiformis), UniProt P07374 1-840); assay: ELISA, urease conjugates on VEGFR2/Fc
T2 construct: also called AB2-DOS47

[3] = biological target: T3, AB3m (SEQ ID NO:23)-DOS47 antibody-urease conjugate (jack bean (Canavalia ensiformis), UniProt P07374 1-840); assay: ELISA, urease conjugates on VEGFR2/Fc
T3 construct: also called AB3-DOS47

[4] = biological target: T4, AB4 (SEQ ID NO:27)-DOS47 antibody-urease conjugate (jack bean (Canavalia ensiformis), UniProt P07374 1-840); assay: ELISA, urease conjugates on VEGFR2/Fc
T4 construct: also called AB4-DOS47

[5] = biological target: T5, V21H4-DOS47 (V21H4, SEQ ID NO:6, conjugated to urease through BM(PEG)2) (jack bean (Canavalia ensiformis), UniProt P07374 1-840); assay: ELISA, VEGFR2/Fc captured on anti-human IgG-Fc, conjugate detected with anti-urease
T5 construct: also called V21-DOS47

[6] = biological target: V21H1-DOS47 (V21H1, SEQ ID NO:3, conjugated to urease through SM(PEG)2) (jack bean (Canavalia ensiformis), UniProt P07374 1-840); assay: as above
[7] = biological target: T6, V21H4-DOS47 with 5.1 antibodies per urease (Canavalia ensiformis, UniProt P07374); assay: as above
T6 construct: subunit of the homohexameric enzyme

[8] = biological target: T7, V21H4-DOS47 with 6.6 antibodies per urease (Canavalia ensiformis, UniProt P07374); assay: as above
T7 construct: subunit of the homohexameric enzyme

[9] = biological target: T8, V21H4-DOS47 with 7.2 antibodies per urease (Canavalia ensiformis, UniProt P07374); assay: as above
T8 construct: subunit of the homohexameric enzyme

[10] = biological target: T9, V21H4-DOS47 with 8.7 antibodies per urease (Canavalia ensiformis, UniProt P07374); assay: as above
T9 construct: subunit of the homohexameric enzyme

[11] = biological target: V21H4-DOS47 with 1.4 antibodies per urease (jack bean (Canavalia ensiformis), UniProt P07374 1-840); assay: as above
[12] = biological target: V21H4-DOS47 with 2.3 antibodies per urease (jack bean (Canavalia ensiformis), UniProt P07374 1-840); assay: as above
[13] = biological target: V21H4-DOS47 with 3.3 antibodies per urease (jack bean (Canavalia ensiformis), UniProt P07374 1-840); assay: as above
[14] = biological target: V21H4-DOS47 with 9.4 antibodies per urease (jack bean (Canavalia ensiformis), UniProt P07374 1-840); assay: as above
[15] = biological target: T10, human VEGFR2 (KDR) expressed on 293/KDR cells (human, UniProt P35968 20-1356); assay: flow cytometry on 293/KDR cells, detected with PE-streptavidin
[16] = biological target: T10, human VEGFR2 (KDR) expressed on 293/KDR …; assay: flow cytometry on 293/KDR cells, S/N against the biotin-isotype control
[17] = biological target: B1; assay: ELISA, VEGFR2/Fc captured by anti-human IgG-Fc, biotin-V21H4 detected with streptavidin-AP; antibody alone, not conjugated
[18] = biological target: B1; assay: ELISA, VEGFR2/Fc captured on anti-human IgG-Fc, biotinylated antibody detected with streptavidin-alkaline phosphatase
[19] = biological target: T11, mouse VEGFR-2/Fc (R&D Systems) (mouse, UniProt P35918 20-762); assay: SPR (Biacore 3000), immobilized mouse VEGFR-2/Fc
T11 construct: not shown: Fc part of the bought fusion, not described

[20] = biological target: B1; assay: SPR (Biacore 3000), sdAb monomer over amine-coupled human VEGFR-2/Fc, 25 C
[21] = biological target: B1; assay: SPR (Biacore 3000), sdAb monomer over amine-coupled human VEGFR-2/Fc, 25 C; constants estimated from transformed data (FIG. 3)
[22] = biological target: T1, AB1m (SEQ ID NO:9)-DOS47 …; assay: ELISA, VEGFR3/Fc captured by anti-human IgG-Fc, conjugate detected with anti-urease
[23] = biological target: T2, AB2 (SEQ ID NO:13)-DOS47 …; assay: as above
[24] = biological target: T3, AB3m (SEQ ID NO:23)-DOS47 …; assay: as above
[25] = biological target: T4, AB4 (SEQ ID NO:27)-DOS47 …; assay: as above

T11 sequence (P35918 20-762 limits assumed): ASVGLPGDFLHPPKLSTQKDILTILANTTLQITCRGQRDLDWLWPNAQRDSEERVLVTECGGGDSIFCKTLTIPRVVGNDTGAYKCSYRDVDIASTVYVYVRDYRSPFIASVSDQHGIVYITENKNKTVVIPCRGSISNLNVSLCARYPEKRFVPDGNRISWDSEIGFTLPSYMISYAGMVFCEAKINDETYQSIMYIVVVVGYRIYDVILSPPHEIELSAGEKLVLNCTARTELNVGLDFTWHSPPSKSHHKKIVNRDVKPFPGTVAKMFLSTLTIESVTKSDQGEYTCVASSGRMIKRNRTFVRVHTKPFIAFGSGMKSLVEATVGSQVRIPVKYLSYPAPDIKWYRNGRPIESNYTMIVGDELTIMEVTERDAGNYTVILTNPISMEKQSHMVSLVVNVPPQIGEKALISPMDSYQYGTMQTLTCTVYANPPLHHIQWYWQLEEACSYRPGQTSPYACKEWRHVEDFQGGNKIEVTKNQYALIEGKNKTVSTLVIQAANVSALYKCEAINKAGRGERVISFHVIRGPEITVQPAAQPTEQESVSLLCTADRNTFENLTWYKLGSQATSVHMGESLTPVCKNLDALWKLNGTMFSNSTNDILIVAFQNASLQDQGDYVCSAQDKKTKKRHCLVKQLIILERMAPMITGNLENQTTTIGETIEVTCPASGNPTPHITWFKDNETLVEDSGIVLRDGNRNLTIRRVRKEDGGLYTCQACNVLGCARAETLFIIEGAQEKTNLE
T4 sequence (VHH, as listed by the source limits assumed, chain 1 of 2): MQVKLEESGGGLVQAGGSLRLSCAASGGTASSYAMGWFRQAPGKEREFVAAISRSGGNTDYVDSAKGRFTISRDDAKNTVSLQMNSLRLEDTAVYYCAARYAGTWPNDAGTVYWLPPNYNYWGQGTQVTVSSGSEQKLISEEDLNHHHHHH
T4 sequence (P07374 whole entry, chain 2 of 2): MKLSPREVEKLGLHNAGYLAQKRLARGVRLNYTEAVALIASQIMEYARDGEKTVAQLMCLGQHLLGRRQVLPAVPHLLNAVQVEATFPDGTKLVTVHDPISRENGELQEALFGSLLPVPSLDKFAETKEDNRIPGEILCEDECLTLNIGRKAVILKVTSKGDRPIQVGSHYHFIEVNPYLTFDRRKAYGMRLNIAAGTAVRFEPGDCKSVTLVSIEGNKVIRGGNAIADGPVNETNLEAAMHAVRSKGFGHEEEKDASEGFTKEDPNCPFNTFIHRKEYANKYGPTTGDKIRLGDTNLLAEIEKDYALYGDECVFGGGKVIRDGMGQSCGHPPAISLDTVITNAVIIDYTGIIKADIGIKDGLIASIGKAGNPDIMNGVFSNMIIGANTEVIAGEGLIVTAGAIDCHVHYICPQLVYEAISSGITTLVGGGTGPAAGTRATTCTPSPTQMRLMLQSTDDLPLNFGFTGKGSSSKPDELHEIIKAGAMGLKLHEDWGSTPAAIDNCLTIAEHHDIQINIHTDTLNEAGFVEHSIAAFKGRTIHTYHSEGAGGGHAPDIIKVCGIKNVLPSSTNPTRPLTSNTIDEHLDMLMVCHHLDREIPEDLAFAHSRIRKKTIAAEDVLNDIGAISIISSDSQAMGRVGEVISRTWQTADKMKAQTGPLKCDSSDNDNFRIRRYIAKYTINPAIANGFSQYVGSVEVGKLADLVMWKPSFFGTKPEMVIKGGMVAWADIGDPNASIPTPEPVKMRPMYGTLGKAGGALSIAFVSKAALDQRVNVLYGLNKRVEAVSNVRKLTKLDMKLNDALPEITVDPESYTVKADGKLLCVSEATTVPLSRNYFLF
T2 sequence (P07374 whole entry): as the sequence (P07374 whole entry, chain 2 of 2) above
T1 sequence (VHH, as listed by the source limits assumed, chain 1 of 2): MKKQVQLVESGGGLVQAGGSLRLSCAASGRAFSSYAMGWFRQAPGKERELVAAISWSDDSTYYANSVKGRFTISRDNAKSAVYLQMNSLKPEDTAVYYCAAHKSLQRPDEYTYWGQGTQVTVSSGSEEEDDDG
T1 sequence (P07374 whole entry, chain 2 of 2): as the sequence (P07374 whole entry, chain 2 of 2) above
T3 sequence (VH, as listed by the source limits assumed, chain 1 of 2): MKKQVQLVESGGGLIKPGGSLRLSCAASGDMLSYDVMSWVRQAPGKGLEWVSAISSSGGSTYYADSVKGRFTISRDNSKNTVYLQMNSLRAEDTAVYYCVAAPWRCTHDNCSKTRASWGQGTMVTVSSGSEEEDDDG
T3 sequence (P07374 whole entry, chain 2 of 2): as the sequence (P07374 whole entry, chain 2 of 2) above

B1
binding result [1]: binds | binding result [2]: binds | binding result [3]: binds | binding result [4]: binds | binding result [5]: binds | binding result [6]: binds | binding result [7]: binds | binding result [8]: binds | binding result [9]: binds | binding result [10]: binds | binding result [11]: binds | binding result [12]: binds | binding result [13]: binds | binding result [14]: binds

B2
EC50 [15]: 1.6 nM | EC50 (read off the curve) [16]: ~2 nM | EC50 [17]: 1.8 nM | EC50 (read off the curve) [18]: ~2 nM

B3
binding result [19]: no binding (tested: 150-200 nM) | Kd [20]: 500 nM | koff [20]: 0.02 s⁻¹ | kon [20]: 46000 M⁻¹ s⁻¹

B4
binding result [19]: no binding (tested: 150-200 nM) | Kd [21]: ~80 nM | koff [21]: < 0.01 s⁻¹ | kon [21]: ~60000 M⁻¹ s⁻¹

B5
binding result [19]: no binding (tested: 150-200 nM) | Kd [20]: 900 nM | koff [20]: 0.045 s⁻¹ | kon [20]: 53000 M⁻¹ s⁻¹

B6
binding result [19]: no binding (tested: 150-200 nM)

B7
binding result [22]: no binding | binding result [23]: no binding | binding result [24]: no binding | binding result [25]: no binding
